# In patent publication US12582683B2, “Prostate neoantigens and their uses” (Jansen Biotech, Inc., priority 2019, dated 2026):
# Legend:
# [1] = biological target: HLA-A*24:02 (Homo sapiens, UniProt P04439, D101N/D140Y/D185E/E176V/E190D/F33S/G103R/G107R/I119L/I121M/I306V/K335N/L105A/L180Q/L300P/N151K/N90K/Q86E/Q94H/R106L/R138H/R89G/T104I/T345S/V100E/W191G/Y123F); assay: In vitro binding of neoantigens to class I MHC (UV peptide exchange, HLA class I ELISA); details: 100% = same binding affinity as positive control peptide
# Method: (§1) In Vitro Binding of Neoantigens to Class I MHC
# (§2) The 9 mer peptides identified by bioinformatics analysis were analyzed for their binding propensities to 6 common HLA class I alleles (HLA-A*01:01, A*02:01, A*03:01, A*24:02, B*07:02, B*08:01). The principle of the method is briefly described below and consists of two parts, one involving exchange of peptide with a positive control induced by Ultraviolet (UV) radiation, and the second is an enzyme immunoassay to detect stable HLA-peptide and empty HLA complexes.
# (§3) HLA-bound peptides are critical for the stability of the HLA complex.
# (§4) The exchange efficiency between the peptide of interest and Pos was analyzed using an HLA class I ELISA. The combined technologies allowed the identification of ligands for an HLA molecule of interest which are potentially immunogenic.
# (§5) The UV control represented UV-irradiation of conditional HLA class I complex in the absence of a rescue peptide. […] To this end streptavidin was bound onto polystyrene microtiter wells. After washing and blocking, HLA complex present in exchange reaction mixtures or ELISA controls was captured by the streptavidin on the microtiter plate via its biotinylated heavy chain. Non-bound material was removed by washing. Subsequently, horseradish peroxidase (HRP)-conjugated antibody to human B2M was added. […] In the latter case B2M was removed during the washing step. After removal of non-bound HRP conjugate by washing, a substrate solution was added to the wells. A coloured product formed in proportion to the amount of intact HLA complex present in the samples. After the reaction was terminated by the addition of a stop solution, absorbance was measured in a microtiter plate reader. […] Suboptimal HLA binding of peptides with a moderate to low affinity for HLA class I molecules can also be detected by this ELISA technique (Rodenko, B et al. (2006) Nature Protocols 1: 1120-32).
# (§6) Binding of select neoepitopes to HLA-A*01:01, HLA-A* 02:01, HLA-A* 03:01, HLA-A*24:02, HLA-1B*07:02 and HLA-1B*08:01 was evaluated using the assay described in Example 1. […] As a criterion for further evaluation, peptides with an exchange rate of at least 10% with the corresponding Pos peptide for at least one of the 6 HLA alleles that we considered for further evaluation. […] Higher percentages correspond to stronger binding to the HLA allele.
# [2] = biological target: HLA-A*02:01 (Homo sapiens, UniProt P04439, D140Y/D185E/D98H/E176V/E277Q/G131W/G231S/I119V/I121R/I166T/I218V/L300P/L318F/N151K/N90K/P208A/P217A/Q86G/Q94H/R138H/R169H/T345S); assay: as above; details: 100% = same binding affinity as positive control peptide
# Method: as §1, §2, §3, §4, §5, §6
# [3] = biological target: HLA-A*01:01 (Homo sapiens, UniProt P04439, A114D/A174V/A182V/D101N/D185E/E176A/E190D/L180R/Q94H/R68K/S129P/T187R/V100A/V91M/W191G); assay: as above; details: 100% = same binding affinity as positive control peptide
# Method: as §1, §2, §3, §4, §5, §6
# [4] = biological target: HLA-A*03:01 (Homo sapiens, UniProt P04439); assay: as above; details: 100% = same binding affinity as positive control peptide
# Method: as §1, §2, §3, §4, §5, §6
# [5] = biological target: HLA-B*07:02 (Homo sapiens, UniProt P01889); assay: as above; details: 100% = same binding affinity as positive control peptide
# Method: as §1, §2, §3, §4, §5, §6
# [6] = system: CD8+ T cells in PBMCs from patients with metastatic castrate-resistant prostate cancer; assay: Patient PBMC restimulation assay (in vitro immunogenicity of neoantigens); type: cell-based, human; set-up: Maximum frequency of TNFα+IFNγ+CD8+ T cells: unit not given here; details: for Maximum fold change over: fold change over negative control, highest across the PBMC donors evaluated, 9 mer peptide; for Maximum frequency of TNFα+IFNγ+CD8+ T cells: greatest frequency among all tested PBMC donors, negative control 0.011-0.8
# Method: In Vitro Immunogenicity Assessment of Neoantigens (“Patient PBMC Restimulation Assay”)
# PBMCs from human patients with metastatic castrate-resistant prostate cancer were thawed using media (RPMI 1640 supplemented with Glutamax, 10% HI FBS, and 1× Sodium Pyruvate). Cells were counted and plated in a 96 well round bottom microplate at a concentration of 250,000 viable cells per well. Lyophilized peptides were solubilized in 100% DMSO and diluted in media to 10 μg/mL. Neoantigen peptides were added in equal volume to PBMCs for a final concentration of 5 μg/mL. CEF Peptide Pool “Plus” (Cellular Technologies, Ltd.) was utilized as a positive control and DMSO at the same final concentration as the experimental peptides was utilized as a negative control. Human IL-15 (Peprotech) was added to all wells at final concentration of 10 ng/mL.
# Plates were incubated at 37° C. (5% CO2) for a total of 13 days. Media was refreshed every 2 days with IL-15 (10 ng/mL final concentration) and IL-2 (R&D systems, 10 IU/mL final concentration). On day 12, PBMCs were re-stimulated with identical experimental peptides or controls, at same concentration as peptide stimulation on Day 1. After 1-hour incubation, protein Inhibitor Cocktail (eBioscience) was added to every well and plate was incubated overnight.
# On day 13, cells were stained for intracellular flow cytometry analysis. The cells were washed with PBS and stained with Live/Dead Fixable Aqua Dead Cell stain (Thermo-Fisher). Following the live/dead stain, cells were blocked using Biotin-Free Fe Receptor Blocker (Accurate Chemical & Scientific Corp). Extracellular cellular flow panel (1 μL/antibody per well in 50 μL) consisted of CD3 PerCP-Cy5.5 (Biolegend), CD4 BV421 (Biolegend), and CD8 APC-Cy7 (Biolegend). After extracellular staining, cells were fixed using Foxp3/Transcription Factor Staining Buffer Set (eBioscience) and stained for intracellular proteins (1:50 dilution) using TNFα FITC (R&D Systems) and IFNγ BV785 (Biolegend). Cells were washed and resuspended in stain buffer and analyzed using a BD Celesta flow cytometer.
# Flow cytometry cell staining analysis was completed using FlowJo v10. Cells were gated on live, singlet, CD3+ cells. The CD8+ T cells were analyzed for TNFα/IFNγ expression and the frequency of double positive TNFα/IFNγ CD8+ T cells was recorded. Responses were assessed to be positive when the frequency of double positive TNFα/IFNγ CD8+ T cells due to stimulation with an experimental peptide was increased greater than or equal to 2-fold over the DMSO only negative control for that patient. Peptides were analyzed in 1 to 7 patient samples.
# The 9 mer fragments shown in Table 13 were assessed for their ability to activate T cells using the Patient PBMC restimulation assay described in Example 1 using TNFα and IFNγ production by CD8^+ T cells as a readout. Self-antigens shown in Table 15 were also used in the assays. […] PBMCs from ten patients were evaluated.
Molecule,"Exchange rate with Pos peptide, HLA-A*24:02 [1]","Exchange rate with Pos peptide, HLA-A*02:01 [2]","Exchange rate with Pos peptide, HLA-A*01:01 [3]","Exchange rate with Pos peptide, HLA-A*03:01 [4]","Exchange rate with Pos peptide, HLA-B*07:02 [5]",Maximum fold change over [6],Maximum frequency of TNFα+IFNγ+CD8+ T cells [6],"Immunogenic ([6]; patient PBMC restimulation, CD8+ T cells)"
"CYLRRQKRLKCEKQPGA (listed as Homo sapiens) [Neoantigen P60, FOXA1.p.F266L]",0.9%,7.9%,3.1%,36.6%,6.1%,2.08,0.340,
"DDRNTFDIVWWCPMSRLRLALTVPPSTTTTCVTVPAWAA [P46] (listed as Homo sapiens) [Neoantigen P46, TP53 (R213D)]",−0.4%,14.4%,,10.3%,64.8%,2.33,0.140,
"DSSGNLLERNSFEVRV (listed as Homo sapiens) [Neoantigen P73, TP53 (G266E)]",0.5%,89.2%,2.1%,3.5%,8.7%,2.97,0.110,
"GVPGDSTRRAVRRMNTF [P17] (listed as Homo sapiens) [Neoantigen P17, MSMB-NOCA4]",0.1%,,4.9%,3.8%,38.7%,,0.130,
"GYLRMQGLMAQRLLLR (listed as Homo sapiens) [Neoantigen P97, FOXRED2-TXN2]",0.1%,4.6%,2.5%,39%,7%,4.55,0.160,
"LHPDSGNMVENGCYLRR (listed as Homo sapiens) [Neoantigen P59, FOXA1 (F254V)]",,,,,,10.75,3.010,
"LHPQRETFTPRWSGANYWKLAFPVGAEGTFPAAATQRGVVRPA (listed as Homo sapiens) [Neoantigen P27, FAM126B-ORC2]",,,,,,3.43,0.430,
"MAGGVLRRLLCREPDRDGDKGASREETVVPLHIGDPVVLPGIGQCYSALF (listed as Homo sapiens) [Neoantigen P37, TSTD1-F11R]",,,,,,3.13,1.160,
"MFENGCYLGRQKRFKCE (listed as Homo sapiens) [Neoantigen P61, FOXAl.p.R261G]",90.3%,5.8%,1.7%,2.1%,,,0.084,
"MMAEHSVHVPKILSGK (MMAEIISVHVPKILSGK; listed as Homo sapiens) [Neoantigen P58, AR (Q903H)]",0.2%,11.8%,2.5%,32.5%,,,5.370,
"NSKMALNSLNSIDDAQLTRIAPPRSHCCFWEVNAP (listed as Homo sapiens) [Neoantigen P35, TMPRSS2-ERG]",,,,,,2.67,0.064,
"PKSEVRAKCKFSILNAK (listed as Homo sapiens) [Neoantigen P56, SPOP (F102C)]",0.5%,8.4%,2.6%,6.8%,82.5%,11.57,1.620,
"QMAVIQYSCMGLMVFAM (listed as Homo sapiens) [Neoantigen P50, AR (W742C)]",,,,,,5.14,0.190,
"SLYHREKQLIAMDSAI (listed as Homo sapiens) [Neoantigen P22, 5LC45A3-ELK4]",0%,46.9%,4.4%,4.8%,8.3%,5.00,0.120,
"VQPIARELYQFTFDLLI (listed as Homo sapiens) [Neoantigen P48, AR.p.H875Y]",0.1%,99.3%,4.3%,4.4%,12.8%,2.33,0.220,
"VFFKRAAEGFFRMNKLKESSDTNPKPYCMAAPMGLTENNRNRKKSYRETNLKAVSWPLNHT [P77] (peptide, listed as Homo sapiens, AR-V3) VFFKRAAEGFFRMNKLKESSDTNPKPYCMAAPMGLTENNRNRKKSYRETNLKAVSWPLNHT",,,,,,3.24,0.160,Yes
